A short description of data set [1]: Synthesis of L-phenylalanine from N-succinyl-L-phenylalanine, TLC detection (Example 3). It counts as biochemical. The following applies: TLC ninhydrin, as Example 2. The protocol:
(§1) The reaction reagent containing the N-succinyl-L-amino acid as such was prepared by the same method as in the preparation of a reaction reagent containing N-succinyl-L-tert-leucine mentioned in (1).
(§2) The L-succinylaminoacylase (2.3 mg/mL, 0.5 mL) prepared in Example 1 was added to the reaction reagent (9.5 mL) containing the above N-succinyl-L-tert-leucine and, after the above was gently stirred, the reaction was conducted at 57° C. for 6 hours. As a control test, the same reaction was conducted by adding 50 mM K-phosphate buffer (pH 7.5) to the reagent mixture in place of the L-succinylaminoacylase solution. […]
(§3) N-Succinyl-L-valine, N-succinyl-L-phenylalanine, N-succinyl-L-tryptophan, N-succinyl-L-asparagine, N-succinyl-L-aspartic acid, N-succinyl-L-serine, N-succinyl-L-glutamic acid, N-succinyl-L-tert-leucine, N-succinyl-L-cyclohexylglycine or N-succinyl-L-4-bromophenylalanine is used as an N-succinyl-L-amino acid and a reaction reagent was prepared according to the method for the case of N-succinyl-L-tert-leucine. L-succinylaminoacylase of Example 1 was made to react using the resulting reaction reagent to synthesize an L-amino acid and the L-amino acid was directly detected by the same manner as in Example 2.

The nature of data set [2]: Synthesis of L-tert-leucine from N-succinyl-L-tert-leucine, TLC with ninhydrin detection (Examples 2, 3). The format is biochemical. Conditions: 57° C., 6 hours, CoCl2, HEPES pH 7.9. The protocol:
The above-mentioned 1 M HEPES (2.0 mL), 10 mM CoCl2 solution (0.1 mL) and 150 mM N-succinyl-L-tert-leucine (1.0 mL) were mixed with water (6.4 mL) to give a reaction reagent.
as §2, §3

Data set [3] can be described thus: Conversion of N-succinyl-DL-tert-leucine to L-tert-leucine, HPLC (Example 5). It counts as biochemical. Conditions: 1 wt % N-succinyl-DL-tert-leucine, pH 7 to 8, 1 mM CoCl2, 57° C., 90 hours, theoretically highest yield 50%. The protocol: An L-succinylaminoacylase solution (1 mL; 2.3 mg/mL) was added to a 1 wt % solution of N-succinyl-DL-tert-leucine (pH 7 to 8; 10 mL; containing 1 mM of CoCl2) and made to react at 57° C. for 90 hours with stirring to give L-tert-leucine. The sample was collected after finishing the reaction and subjected to an HPLC measurement under the condition same as the Example 4 to confirm the peaks of succinyl-form compound and free-form compound whereby the synthesis of L-tert-leucine from N-succinyl-DL-tert-leucine was confirmed. As a result, the yield was 45% or more and the value near 50% which is the theoretically highest yield was achieved.

Data set [4] is described as follows: Activity to N-succinylamino acid compared with N-acetylamino acid. It counts as biochemical.
Data set [5] in a line: Synthesis of L-tryptophan from N-succinyl-L-tryptophan, TLC detection (Example 3). It counts as biochemical. Conditions: TLC ninhydrin, as Example 2. The protocol:
as §1, §2, §3

Another data set in a line: Optimum pH of the enzyme. The format is biochemical. The following applies: reaction at 60° C. for 30 minutes.
Data set [6] in a line: Synthesis of L-valine from N-succinyl-L-valine, TLC detection (Example 3). The following applies: TLC ninhydrin, as Example 2. The format is biochemical. The protocol:
as §1, §2, §3

The nature of data set [7]: Temperature stability of the enzyme. It counts as physicochemical. Conditions: heating treatment for 30 minutes.
A short description of data set [8]: Synthesis of L-cyclohexylglycine from N-succinyl-L-cyclohexylglycine, TLC detection (Example 3). It counts as biochemical. The following applies: TLC ninhydrin, as Example 2. The protocol: as §1, §2, §3
Data set [9] in a line: Conversion of N-succinyl-DL-tert-leucine to L-tert-leucine with N-succinylamino acid racemase, HPLC (Example 6). It counts as biochemical. The following applies: used together with N-succinylamino acid racemase, 1 wt % N-succinyl-DL-tert-leucine, 1 mM CoCl2, 57° C., up to 90 hours. The protocol: An L-succinylaminoacylase solution (1 mL; 2.3 mg/mL) prepared in Example 1 and the above N-succinylamino acid racemase (0.1 mL; 10.5 mg/mL) were added to a 1 wt % solution of N-succinyl-DL-tert-leucine (pH 7 to 8; 10 mL; containing 1 mM of CoCl2) and made to react at 57° C. for 90 hours with stirring to synthesize L-tert-leucine. The sample was collected after 24 hours and 90 hours from the start of the reaction and subjected to an HPLC measurement under the condition same as Example 4 to confirm the peaks of succinyl-form compound and free-form compound whereby the synthesis of L-tert-leucine from N-succinyl-DL-tert-leucine was confirmed.

Data set [10] in a line: Conversion of N-succinyl-L-tert-leucine to L-tert-leucine, HPLC (Example 4). The format is biochemical. The following applies: 1 wt % N-succinyl-L-tert-leucine, pH 7 to 8, 1 mM CoCl2, 57° C., up to 90 hours. The protocol:
An L-succinylaminoacylase solution (1 mL; 2.3 mg/mL) was added to a 1 wt % solution of N-succinyl-L-tert-leucine (pH 7 to 8; 10 mL; containing 1 mM of CoCl2) and made to react at 57° C. for 90 hours with stirring to give L-tert-leucine. The sample was collected after 16 hours, 42 hours, 65 hours and 90 hours from the start of the reaction and subjected to an HPLC measurement under the following condition to confirm the peaks of succinyl-form compound and free-form compound whereby the synthesis of L-tert-leucine from N-succinyl-L-tert-leucine was confirmed.
Column: Inertsil ODS-2 (particle size: 5 μm; 4.6 mm inner diameter×250 mm length) manufactured by GL Science
Eluant: aqueous solution of phosphate (pH 2.3)/acetonitrile for HPLC=80:20
Column temperature: 40° C.

Data set [11] can be described thus: Synthesis of L-4-bromophenylalanine from N-succinyl-L-4-bromophenylalanine, TLC detection (Example 3). It counts as biochemical. The following applies: TLC ninhydrin, as Example 2. The protocol:
as §1, §2, §3

Data set [12] in a line: Synthesis of L-serine from N-succinyl-L-serine, TLC detection (Example 3). Conditions: TLC ninhydrin, as Example 2. The format is biochemical. The protocol: as §1, §2, §3
Data set [13] can be described thus: Effect of metal ion on L-succinylaminoacylase activity. The format is biochemical. Conditions: metal ion Co2+ versus Zn2+.
A short description of data set [14]: Synthesis of L-aspartic acid from N-succinyl-L-aspartic acid, TLC detection (Example 3). It counts as biochemical. Conditions: TLC ninhydrin, as Example 2. The protocol: as §1, §2, §3
Data set [15] in a line: Synthesis of L-glutamic acid from N-succinyl-L-glutamic acid, TLC detection (Example 3). It counts as biochemical. The following applies: TLC ninhydrin, as Example 2. The protocol: as §1, §2, §3
Data set [16] in a line: Synthesis of L-asparagine from N-succinyl-L-asparagine, TLC detection (Example 3). The format is biochemical. Conditions: TLC ninhydrin, as Example 2. The protocol:
as §1, §2, §3

Data set [17] is described as follows: Ability of commercially available L-aminoacylase to synthesize L-tert-leucine, TLC (Comparative Example). The format is biochemical. Conditions: 2,600 U/mL enzyme solution, 25° C., 12 hours; TLC ninhydrin. The protocol: Acylase AMANO (Sigma, code No. 01818-5G) and porcine kidney Acylase I (Sigma, code No. A3010-100MG) were dissolved in 50 mM K-phosphate buffer (pH 7.5) so as to make each of them 2,600 U/mL to give an L-aminoacylase solution.
The above-mentioned 1 M HEPES (2.0 mL), 10 mM CoCl2 solution (0.1 mL) and 150 mM N-acetyl-L-tert-leucine (1.0 mL) were mixed with water (6.4 mL) to give a reaction reagent.
The above commercially available L-aminoacylase (Comparative Example 2) (0.5 mL) was added to the reaction reagent (9.5 mL) containing the above N-acetyl-L-tert-leucine and, after the above was gently stirred, the reaction was conducted at 25° C. for 12 hours. As a control test, the same reaction was conducted by adding 50 mM K-phosphate buffer (pH 7.5) to the reagent mixture in place of the L-aminoacylase solution. After the enzymatic reaction, the L-amino acid was directly detected by TLC and ninhydrin reaction by the same manner as in Example 2.

The nature of data set [18]: Effect of metal ion on N-succinylamino acid racemase activity. It counts as biochemical. The following applies: final concentration of 0.1 mM to 1 M.

Entries after “also recorded” stand apart in the source; their conditions may differ.

B1: L-succinylaminoacylase: L-succinylaminoacylase of NCA 1503 strain of Geobacillus stearothermophilus; amino acid sequence SEQ ID No: 2, expressed in Escherichia coli JM 109 (pLSA1) (protein, listed as Geobacillus stearothermophilus)
chain: MKEIVEQMKAELWEVFDHLHRHPEISWEEWQTTEFLRRELEREGYRVRTFADCPGVVAEIGAGPFTVGVRSDMDALWQEVNGVWQPNHACGHDAHMTIVLGVAKLLRRIGYEPPGTLRFLFQPAEEKGTGALKLIEKGAVDGVSFLYGVHLRPIQEVKGGYAAPAIIHGAAQCIEGRIRGVAAHAARPHLGVNVIEVGSAIVQELGKIHIDPQVPASIKMTKFHAGEKDANTIPGYAEFALDLRAQTNEAMERLVEGLRHVINGVAAIYGAEIELVERTRIVAAHPDPDAVRLMEEAIIAALGTEKCVPPVVTSGGEDFHFYSFQKPELKTTMLGLGCDLRPGLHHPNMTFRRDDLLSGVEILARTVINTFALQGENERVSVAANH
For the molecule B1, the “ability to synthesize L-phenylalanine from N-succinyl-L-phenylalanine” value in [1] is on record as “able to synthesize the corresponding L-amino acid”. The “ability to produce L-tert-leucine from N-succinyl-L-tert-leucine” value in data set [2] is “able to produce the L-tert-leucine; also recorded: able to synthesize the corresponding L-amino acid; also recorded: reacts”. Also, the “yield of L-tert-leucine” value in data set [3] is at least 45%. For the same molecule, the “activity to N-succinylamino acid relative to N-acetylamino acid” value in [4] was “at least 100 fold”. Also, the “ability to synthesize L-tryptophan from N-succinyl-L-tryptophan” value in data set [5] is “able to synthesize the corresponding L-amino acid”. For the same molecule, in “Optimum pH of the enzyme”, the “Optimum pH” value was found to be 7. The “ability to synthesize L-valine from N-succinyl-L-valine” value in [6] is on record as “able to synthesize the corresponding L-amino acid”. In data set [7], the “Temperature stability: temperature at which inactivated” value is at least 75 °C and the “Temperature stability: temperature at which stable” value came to 70 °C. Also, the “ability to synthesize L-cyclohexylglycine from N-succinyl-L-cyclohexylglycine” value in data set [8] is recorded as “able to synthesize the corresponding L-amino acid; also recorded: reacts”. Besides, in data set [9], the “yield (conversion rate into L-tert-leucine)” value is recorded as “about 85%”. For the same molecule, the “yield (conversion rate into L-tert-leucine)” value in [10] is reported as at least 90%. Besides, the “ability to synthesize L-4-bromophenylalanine from N-succinyl-L-4-bromophenylalanine” value in data set [11] was “able to synthesize the corresponding L-amino acid; also recorded: reacts”. Further, the “ability to synthesize L-serine from N-succinyl-L-serine” value in data set [12] was “able to synthesize the corresponding L-amino acid”. Also, the “activity increase with Co2+ as compared with Zn2+” value in data set [13] is on record as “twice or more”. In addition, in data set [14], the “ability to synthesize L-aspartic acid from N-succinyl-L-aspartic acid” value was “able to synthesize the corresponding L-amino acid”. In addition, the “ability to synthesize L-glutamic acid from N-succinyl-L-glutamic acid” value in [15] is on record as “able to synthesize the corresponding L-amino acid”. Moreover, the “ability to synthesize L-asparagine from N-succinyl-L-asparagine” value in [16] was “able to synthesize the corresponding L-amino acid”.

B2: porcine kidney Acylase I: commercially available L-aminoacylase (Sigma, code No. A3010-100MG) (protein, UniProt P37111 2-407, looked up)
Aminoacylase-1: ASKGREGEHPSVTLFRQYLRIRTVQPEPDYGAAVAFLEERARQLGLGCQKVEVVPGHVVTVLTWPGTNPTLSSILLNSHTDVVPVFKEHWSHDPFEGFKDADGYIYGRGAQDMKCVSIQYLEAVRRLKVEGHHFPRTIHMTFVPDEEVGGHQGMELFVKRPEFQALRAGFALDEGLASPTDAFTVFYSERSPWWLRVTSTGKPGHGSRFIEDTAAEKLHKVINSILAFREKEKQRLQSNQLKPGAVTSVNLTMLEGGVAYNVVPATMSACFDFRVAPDVDLKAFEEQLQSWCQAAGEGVTFEFVQKWMETQVTSTDDSDPWWAAFSGVFKDMKLALELEICPASTDARYIRAAGVPALGFSPMNHTPVLLHDHDERLHEAVFLRGVDIYTQLLSALASVPALPSES
B2: the “ability to synthesize L-tert-leucine from N-acetyl-L-tert-leucine” value in data set [17] is given as “unable to synthesize L-tert-leucine”.

B3: N-succinylamino acid racemase: N-succinylamino acid racemase (gene SEQ ID No: 3) derived from Geobacillus stearothermophilus NCA 1503 strain, per JP-A No. 2008-61642 (protein, listed as Geobacillus stearothermophilus)
chain: MAINIEYVILRHLQMELKAPFTTSFGTFQRKELILVEVVDRDGVSGWGESVAFSAPWYSEETVKTNWHMLEDFLVPLALAEPIHHPEELSKRFSAIRQNNMAKAALEGAVWDLYAKRLGVPLSQALGGAKKDIEVGVSIGIQPTVADLLQVIERYVAQGYRRIKVKIKPSWDVDVIREVRRVFPDVPLMADANSAYTLVDADRLKALDEFGLLMIEQPLAADDLVDHARLQPLLQTPICLDESIRSYDDARKALDLGSCRIINIKIGRVGGLGEAKRIHDLCAERGAPVWCGGMLEAGVGRAHNIAITTLENFTLPGDTAASSHYWERDIITPEVEVHGGLIRVPDAPGIGYDVDRRQVERYTQFAKVFHRTATA
modifications: CDS (1)..(1128)
As to B3, the “relative activity with Co2+ as compared with Mn2+” value in [18] is given as “twice or more higher”.

Source of the values: patent US8470574B2, “L-succinylaminoacylase and process for producing L-amino acid using it” (Toyo Boseki Kabushiki Kaisha, priority 2008, dated 2013).
